Measurements reported in paper PMC314469, “Protein Interaction Networks by Proteome Peptide Scanning” (PLoS Biology, 2004).

T1: Abp1 SH3 (ABP1_YEAST), P15891
T1 chain: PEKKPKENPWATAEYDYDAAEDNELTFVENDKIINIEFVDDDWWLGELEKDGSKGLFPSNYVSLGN

T2: Myo5 SH3 (MYO5_YEAST), Q04439
T2 chain: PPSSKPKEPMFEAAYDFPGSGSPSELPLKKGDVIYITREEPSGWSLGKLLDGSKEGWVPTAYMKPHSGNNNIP


Target: T1, Abp1 SH3 (ABP1_YEAST), P15891
Assay: SPOT array

Compared with NHGFLLPPENIKP [YHR132C 397-409], MNPKSSTPKIPRP [YPR065W 1-13] is higher in normalised SPOT signal, Boehringer light units (BLU); mean over the file's lines of this peptide: 6.9 for the first, 1070 for the second.

Going from NIETHENERLPPRP [YAL023C 524-537] to MSISSKIRPTPRKP [YER118C 1-14], the normalised SPOT signal, Boehringer light units (BLU); mean over the file's lines of this peptide rises from 117 to 2450.

Compared with MNDDRETPPKRKP [YAL026C 1-13], NEYKGLITIIPSKP [YOL152W 549-562] is lower in normalised SPOT signal, Boehringer light units (BLU); mean over the file's lines of this peptide: 6180 for the first, 77.6 for the second.

First: NHAINRIPIKLRP [YGL156W 1061-1073]
Second: NESFSLPPPQPKP [YFL044C 78-90]
The normalised SPOT signal, Boehringer light units (BLU); mean over the file's lines of this peptide of the first is higher: 3450 for the first, 61.2 for the second.

Going from NESAPLQPFPERP [YFL041W 455-467] to NIKMASFLPVPEKP [YNL206C 122-135], the normalised SPOT signal, Boehringer light units (BLU); mean over the file's lines of this peptide rises from 26.2 to 387.

Going from MSELHALLTFPERP [YDR465C 1-14] to NEAAKPSFSFPGKP [YOR098C 607-620], the normalised SPOT signal, Boehringer light units (BLU); mean over the file's lines of this peptide rises from 18.5 to 38.

First: NGEEAEEVVVPEKP [YJL214W 46-59]
Second: NSVDRHAFANPDKP [YLR153C 95-108]
The normalised SPOT signal, Boehringer light units (BLU); mean over the file's lines of this peptide of the first is higher: 539 for the first, 103 for the second.

Compared with MKTTDTYPSLPKP [YMR205C 179-191], NDRNNADPEKKKP [YDR457W 2434-2446] is higher in normalised SPOT signal, Boehringer light units (BLU); mean over the file's lines of this peptide: 97.9 for the first, 206 for the second.

Compared with NIKVLLNPKLGKP [YLL007C 14-26], MKLEGTYEKIPEKP [YAL024C 1062-1075] is higher in normalised SPOT signal, Boehringer light units (BLU); mean over the file's lines of this peptide: 93.7 for the first, 201 for the second.

Going from MPQNQGFPPQFKP [YCL037C 234-246] to NHTIWVGPGKDKP [YHR015W 379-391], the normalised SPOT signal, Boehringer light units (BLU); mean over the file's lines of this peptide falls from 308 to 285.

Going from MIEPAYRNGGPVKP [YOR093C 939-952] to MNIRPSISMRPIKP [YNL105W 40-53], the normalised SPOT signal, Boehringer light units (BLU); mean over the file's lines of this peptide rises from 63.4 to 9140.

Going from NATGNHTPKWFRP [YLR308W 199-211] to MTAAKPNPYAAKP [YDL182W 1-13], the normalised SPOT signal, Boehringer light units (BLU); mean over the file's lines of this peptide rises from 100 to 2430.

First: NEDELDSPVQKKP [YKR086W 102-114]
Second: NESPRNVPIMVKP [YLL043W 210-222]
The normalised SPOT signal, Boehringer light units (BLU); mean over the file's lines of this peptide of the first is lower: 54.4 for the first, 217 for the second.

Compared with NATGKHFPKYFRP [YLR307W 189-201], NDRFSHTPQQQRP [YNL263C 17-29] is higher in normalised SPOT signal, Boehringer light units (BLU); mean over the file's lines of this peptide: 146 for the first, 164 for the second.

Going from NFEVSHKPTVEKP [YPL095C 323-335] to MRSNPQQPPQDKP [YPL204W 475-487], the normalised SPOT signal, Boehringer light units (BLU); mean over the file's lines of this peptide rises from 185 to 264.

Compared with NIPPPPPPPPPKP [YMR089C 153-165], MTPGASANALPPKP [YDL195W 796-809] is higher in normalised SPOT signal, Boehringer light units (BLU); mean over the file's lines of this peptide: 38.2 for the first, 91.9 for the second.

Compared with MKHFFRLPTAFRP [YHR120W 1-13], NHASENTPRDGKP [YLR356W 137-149] is lower in normalised SPOT signal, Boehringer light units (BLU); mean over the file's lines of this peptide: 538 for the first, 97 for the second.

Compared with MQLGSLVPSSLKP [YLR413W 258-270], MQDYRPSPQSARP [YLL043W 81-93] is lower in normalised SPOT signal, Boehringer light units (BLU); mean over the file's lines of this peptide: 3590 for the first, 310 for the second.

Compared with NDEEIKKPTDGKP [YMR012W 785-797], MTSNNLPPGKRKP [YBR222C 343-355] is higher in normalised SPOT signal, Boehringer light units (BLU); mean over the file's lines of this peptide: 33.6 for the first, 4880 for the second.

First: MRSHMEQPQSIKP [YOR329C 457-469]
Second: NIPKPHIPYFMKP [YBR286W 82-94]
The normalised SPOT signal, Boehringer light units (BLU); mean over the file's lines of this peptide of the first is higher: 1740 for the first, 1120 for the second.

Compared with NIEDITEPKPDKP [YDR363W 94-106], MSKLLKHGWKPLRP [YJR126C 471-484] is higher in normalised SPOT signal, Boehringer light units (BLU); mean over the file's lines of this peptide: 75.1 for the first, 267 for the second.

Target: T2, Myo5 SH3 (MYO5_YEAST), Q04439
Assay: SPOT array

Going from NPQSLARPPPPKRI [YKL139W 28-41] to NPFPFPIPEIPSTQ [YOR181W 270-283], the normalised SPOT signal, Boehringer light units (BLU); mean over the file's lines of this peptide falls from 248 to 86.5.

Compared with NLHGYGHPNPPNEK [YHR135C 370-383], PEGVFSIPAPPPNV [YGR094W 179-192] is lower in normalised SPOT signal, Boehringer light units (BLU); mean over the file's lines of this peptide: 217 for the first, 82.5 for the second.

First: PETRMDLPFSPEVN [YDR171W 234-247]
Second: NLAPFTQPDFPFQT [YOR260W 14-27]
The normalised SPOT signal, Boehringer light units (BLU); mean over the file's lines of this peptide of the first is higher: 130 for the first, 81.4 for the second.

Compared with PEDFLPPPPKPHFA [YLR285W 17-30], NLLSLENPVVPSHY [YIL137C 4-17] is lower in normalised SPOT signal, Boehringer light units (BLU); mean over the file's lines of this peptide: 126 for the first, 75.6 for the second.

Going from PEVHHHSPGVPSLV [YLR229C 99-112] to NPLYWLLPSHPYTI [YGL160W 297-310], the normalised SPOT signal, Boehringer light units (BLU); mean over the file's lines of this peptide falls from 331 to 165.

Compared with NPGSMSMPGVPTSM [YNL288W 26-39], PEVKHFSPSTPIML [YKR055W 169-182] is lower in normalised SPOT signal, Boehringer light units (BLU); mean over the file's lines of this peptide: 190 for the first, 93.7 for the second.

First: PAPPPPPPPPPPP [YNL271C 1278-1290]
Second: PEHLFNNPQNPMDF [YBR238C 623-636]
The normalised SPOT signal, Boehringer light units (BLU); mean over the file's lines of this peptide of the first is higher: 53300 for the first, 157 for the second.

Binder PEPTMGSPDAPPLV [YLR357W 573-586] has a normalised SPOT signal, Boehringer light units (BLU); mean over the file's lines of this peptide of 107.
